Results: paper PMC3855764, “Oct4/Sox2 Binding Sites Contribute to Maintaining Hypomethylation of the Maternal Igf2/H19 Imprinting Control Region”

What was measured:
Conditions in all cases: protein: recombinant
Sox2 (recombinant) [1] = target: T1, Sox2 (recombinant) (UniProt P48432 1-319); experiment: EMSA; Sox2 alone; 10 mM Tris pH 8.0, 2 mM MgCl (so in the source), 100 mM KCl, 1.25 mM DTT, 5% glycerol, 0.0625% BSA, 19 ug/ml dGdC, 25 fmol probe in 16 ul, 10 min room temperature; 4% PAGE 0.25X TBE
T1 sequence (P48432 whole entry): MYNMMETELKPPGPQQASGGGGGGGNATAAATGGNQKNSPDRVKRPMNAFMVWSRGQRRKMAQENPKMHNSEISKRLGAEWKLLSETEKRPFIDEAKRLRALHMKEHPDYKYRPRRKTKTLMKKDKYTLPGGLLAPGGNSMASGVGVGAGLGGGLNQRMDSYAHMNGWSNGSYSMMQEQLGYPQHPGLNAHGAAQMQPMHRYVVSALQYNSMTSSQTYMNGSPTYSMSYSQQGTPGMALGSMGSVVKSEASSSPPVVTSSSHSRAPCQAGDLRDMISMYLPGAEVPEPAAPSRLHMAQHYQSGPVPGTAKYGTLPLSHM

Oct4 (recombinant) [2] = target: T2, Oct4 (recombinant) (UniProt P20263 1-352); experiment: EMSA; bound both elements equally well; 10 mM Tris pH 8.0, 2 mM MgCl (so in the source), 100 mM KCl, 1.25 mM DTT, 5% glycerol, 0.0625% BSA, 19 ug/ml dGdC, 25 fmol probe in 16 ul, 10 min room temperature; 4% PAGE 0.25X TBE
T2 sequence (P20263 whole entry): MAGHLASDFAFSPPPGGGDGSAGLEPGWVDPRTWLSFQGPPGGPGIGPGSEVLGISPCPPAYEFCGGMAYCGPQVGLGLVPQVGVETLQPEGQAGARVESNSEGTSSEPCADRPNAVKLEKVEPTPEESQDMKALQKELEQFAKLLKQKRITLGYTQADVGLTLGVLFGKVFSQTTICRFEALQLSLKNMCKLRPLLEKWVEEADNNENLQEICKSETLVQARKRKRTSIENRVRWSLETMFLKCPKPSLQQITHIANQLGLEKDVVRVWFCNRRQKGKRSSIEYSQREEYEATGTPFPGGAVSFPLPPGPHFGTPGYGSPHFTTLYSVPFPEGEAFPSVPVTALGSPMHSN

Oct4 (recombinant) [3] = target: T2, Oct4 (recombinant); experiment: EMSA; Oct4 binding not altered by Sox mutation; 10 mM Tris pH 8.0, 2 mM MgCl (so in the source), 100 mM KCl, 1.25 mM DTT, 5% glycerol, 0.0625% BSA, 19 ug/ml dGdC, 25 fmol probe in 16 ul, 10 min room temperature; 4% PAGE 0.25X TBE
Sox2 (recombinant) [4] = target: T1, Sox2 (recombinant); experiment: EMSA; almost equal to WT; likely via octamer; 10 mM Tris pH 8.0, 2 mM MgCl (so in the source), 100 mM KCl, 1.25 mM DTT, 5% glycerol, 0.0625% BSA, 19 ug/ml dGdC, 25 fmol probe in 16 ul, 10 min room temperature; 4% PAGE 0.25X TBE
Sox2 (recombinant) [5] = target: T1, Sox2 (recombinant); experiment: EMSA; 10 mM Tris pH 8.0, 2 mM MgCl (so in the source), 100 mM KCl, 1.25 mM DTT, 5% glycerol, 0.0625% BSA, 19 ug/ml dGdC, 25 fmol probe in 16 ul, 10 min room temperature; 4% PAGE 0.25X TBE

| Binder | binding result (Oct4 (recombinant) [2]) | binding result (Oct4 (recombinant) [3]) | further results |
| --- | --- | --- | --- |
| ICR Sox-OctA (dsDNA) DNA 1: CTGGTGATTTGCGCTTTCGTATTCTAATTGGGGAC DNA 2: GTCCCCAATTAGAATACGAAAGCGCAAATCACCAG | binds | – | binding result (Sox2 (recombinant) [1]): binds |
| mSB (Sox mutant Sox-OctB) (dsDNA) DNA 1: TTGGGGAACGAAGATGCTAATGATCTCCGGCT DNA 2: AGCCGGAGATCATTAGCATCTTCGTTCCCCAA | – | binds | – |
| mSA (Sox mutant Sox-OctA) (dsDNA) DNA 1: CTAAGCGCTACGTCCTAGGTATTCTAATTGGGGAC DNA 2: GTCCCCAATTAGAATACCTAGGACGTAGCGCTTAG | – | binds | binding result (Sox2 (recombinant) [4]): binds |
| ICR SoxC (dsDNA) DNA 1: GCTCAGGGCTGCAAACAATTCTGAAACTGCATTCTC DNA 2: GAGAATGCAGTTTCAGAATTGTTTGCAGCCCTGAGC | – | – | binding result (Sox2 (recombinant) [5]): binds |
| ICR Sox-OctB (dsDNA) DNA 1: TTGGGGCGTTCAGATGCTAATGATCTCCGGCT DNA 2: AGCCGGAGATCATTAGCATCTGAACGCCCCAA | binds | – | – |
